A short description of the data set: yeast display, Sf9 membrane polyspecificity reagent, FACS + sequencing; frameworks hold sequencing errors. Summed up:
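Nanobodies came from a synthetic yeast display library in Saccharomyces cerevisiae BJ5465, induced with galactose for 36–48 hours and stained for 1 hour at 4 °C with 10% biotinylated, detergent-solubilized Sf9 membrane reagent. Cells were enriched on streptavidin microbeads and then FACS-sorted, with low and high (top ~1%) gates set on anti-HA fluorescence for expression and streptavidin fluorescence for reagent binding. Each polyreactivity label reflects the gate a clone came from. Genes were amplified by colony PCR, sequenced by MiSeq 2 × 250 and filtered by CDR length.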
“QVQLVESGGGLVQAGGSLRLSCAASGRTIIRNTMGWYRQAPGKERELVARISYGGGRTYYADSVKGRFTISRDNAKNTVYLQMNSLKPEDTAVYYCAKVTPPFWGGYWYNYWGQGTQVTVSS”: the “polyreactivity (PSR sort gate)” value is given as “high polyreactivity”.

Turning to “QVQLVESGGGLVQAGGSLRLSCAASGRTIIYNTMGWSRQAPGKEREFVAAINWSGGSTYYADSVKGCFTISRDNAKNTVYLQMNSLKPEDTAVYYCNAEAGYYRPLIYDYWGQGTQVTVSS”, the “polyreactivity (PSR sort gate)” value is “low polyreactivity”.

As for “QVQLVESGGGLVQAGGSLRLSCAASGRTIIYNTMGWYRQAPGKEREFVAAINWSGGSTYYADSVKGRFTISRDNAKNTVYLQMNSLKPEDTAVYYCNAEAGYYRPLIYDYWGQGTQVTVSS”, the “polyreactivity (PSR sort gate)” value is listed as “low polyreactivity”.

Turning to “QVQLVESGGGLVQAGGSLRLSCAASGRTIKYYDMGWYRQAPGKERELVADISGRGGSTYYADSVKGRFTISRDNAKNTVYLQMNSLIPEDTAVYYCNAEWFTSSYAHYGMEHWGQGTQVTVSS”, the “polyreactivity (PSR sort gate)” value was “low polyreactivity”.

As to “QVQLVESGGGLVQAGGSLRLSCAASGRTINRYAMGWYRQAPGKESELVASINKSGTSTYYADAVKGRFTISRDNAKNTVYLQMNCLKPEDTGVYYWKTRYFWCSTYDYWGQGTEVTVSS”, the “polyreactivity (PSR sort gate)” value is “high polyreactivity”.

Regarding “QVQLVESGGGLVQAGGSLRLSCAASGRTIPTYVMGWYRQAPGKERELVASIRSGGRTKYADSVKGRFTISRDNAKNTVYLQMNSLKPEDTAVYYCAADYHGSPEYDYWGQGTQVTVSS”, the “polyreactivity (PSR sort gate)” value was “low polyreactivity”.

Regarding “QVQLVESGGGLVQAGGSLRLSCAASGRTIQYYAMGWYRQAPGKERELVAAITRSGGRTYYADSVKGRFTISRDNAKNTVYLQMNSLKPEDTAVYYCARVSSSVHVDYDYWGQGTQVTVSS”, the “polyreactivity (PSR sort gate)” value is listed as “high polyreactivity”.

Take “QVQLVESGGGLVQAGGSLRLSCAASGRTIRSYAMGWYRQAPGKERELVAAITGSGGRTYYADSVKGRFTISRDNAKNTVYLQMNSLKPEDTAVYYCAARLRGSYDYWGQGTQVTVSS”: the “polyreactivity (PSR sort gate)” value was “high polyreactivity”.

In the case of “QVQLVESGGGLVQAGGSLRLSCAASGRTIRYYAMGWYRQAPGKERELVAAITQNGGRTYYADSVKGRFTISRDNAKNTVYLQMNSLKPEDTAVYYCAKAFIQPGYKYDSWGQGTQVTVSS”, the “polyreactivity (PSR sort gate)” value is “high polyreactivity”.

Take “QVQLVESGGGLVQAGGSLRLSCAASGRTIRYYAMGWYRQAPGKERELVAAITVTVTSTFYADSVKGRFTISRDDAKNTVYLQMNSLKPEDTAVYYCAKVDRQSPGQYYYWGQGSQVTVSS”: the “polyreactivity (PSR sort gate)” value is “low polyreactivity”.

With “QVQLVESGGGLVQAGGSLRLSCAASGRTISRNTMGWYRQAPGKERELVAGITYGGDRTYYADSVKGRFTISRDNAKNTVYLQMNSLKPEDTAVYYCAAPWYWKGLRDYWGQGTQVNVSS”, the “polyreactivity (PSR sort gate)” value is on record as “low polyreactivity”.

Turning to “QVQLVESGGGLVQAGGSLRLSCAASGRTISVYGMGWSRQAPGKERELVASITWRGGTTYYADSVKGRFTISRDNAKNSVYLQMNRLKPEDTAVYYCAAYWPYTTYRYRYDYWGQGTQVTVSS”, the “polyreactivity (PSR sort gate)” value is “high polyreactivity”.

In the case of “QVQLVESGGGLVQAGGSLRLSCAASGRTISWYVMGWYRQAPGKERELVAAISWNGGRTYYADSVKGRFTISRDNAKNTVYLQMNSLKPEDTAVYYCAAKNYHGYPFDYWGQGTQVTVSS”, the “polyreactivity (PSR sort gate)” value is on record as “high polyreactivity”.

For “QVQLVESGGGLVQAGGSLRLSCAASGRTISYAMGWYRQAPGKERELVAAIRYRGGSTYYADSVKGRFTISRDNAKNTVYLQMNSLKPEDTADYYCDAQDSYTPPILFRRGYLRYDYWGQGTQVTVSS”, the “polyreactivity (PSR sort gate)” value was “low polyreactivity”.

“QVQLVESGGGLVQAGGSLRLSCAASGRTIVAYAMGWYRQAPGKERELVAAISWSTGSTYYADSVKGRFTISRDNAKNTVYLQMNSLKPEDTAVYYCAGLVWAPRDYWGQGTQVTVSS”: the “polyreactivity (PSR sort gate)” value was “low polyreactivity”.

In the case of “QVQLVESGGGLVQAGGSLRLSCAASGRTIVLYVMGWYRQAPGKEREFVADINAGGGSTYYADSVKGRFTISRDNAKNTVYLQMNSLKPEDTSVYYCAATRDLGQLFRFGYWGQSTQVTVSS”, the “polyreactivity (PSR sort gate)” value is recorded as “low polyreactivity”.

For the sequence “QVQLVESGGGLVQAGGSLRLSCAASGRTIVYYAMGWYRQAPGKERDFVAAISRSGGRTSYADSVKGRFTISRDNAKNTVYLQMNSLKPEDTAVYYCAAEKRTQPTSREYYWGQGTQVTVSS”, the “polyreactivity (PSR sort gate)” value was “high polyreactivity”.

Consider “QVQLVESGGGLVQAGGSLRLSCAASGRTIWWYAMGWYRQAPGKERELVAAITWIGGSTYYADSVKGRFTISRDNAKNTVYLQMNSLKPEDTAVYYCATDKDDVSDLGKDYAYFEYDYWGQGTQVTVSS”, for which the “polyreactivity (PSR sort gate)” value is recorded as “low polyreactivity”.

As for “QVQLVESGGGLVQAGGSLRLSCAASGRTIYQYAKGWYRPAPGKERELVAAISRGGSTNYADSLKGRFTISRDNAKNTVLLQLNSLKPEDTAVYDCASWYKCLSLKRLYERDYWGHGTQVTVSS”, the “polyreactivity (PSR sort gate)” value is given as “high polyreactivity”.

Regarding “QVQLVESGGGLVQAGGSLRLSCAASGRTIYWNAMVWSRQAPGKERELVAAISNGGTTTYYADSVKGRFTISRDNAKNTVYLQMNSLKPEDTAVYYCAGDIRYFDYDYWGQGTQLTVSS”, the “polyreactivity (PSR sort gate)” value is “high polyreactivity”.

“QVQLVESGGGLVQAGGSLRLSCAASGRTIYYNAIGRYIQAPVKEREFVATITCSGGSTYADSVKGRFTISRDNAKNTVYLQMNSLKPEDTAVYYCNADFSYTSEDQRALFTNVYYWGQGTQVTVSS”: the “polyreactivity (PSR sort gate)” value was “low polyreactivity”.

Turning to “QVQLVESGGGLVQAGGSLRLSCAASGRTLARNAKGWYRQAPGKERELVASINGRTTRTYYADSVKGRFTISRDNAKNTVYLQMNSLKPEDTAVYYCAADPPGYVYGKRYYWGQGTQVTVSS”, the “polyreactivity (PSR sort gate)” value is listed as “high polyreactivity”.

As for “QVQLVESGGGLVQAGGSLRLSCAASGRTLASNAMGWYRQAPGKERELVAAINRGGSTYYADSVKGRFTISRDNAKNTVYLQMNSLKPEETAVYYCAVDRYRYPFDYWGQGTQVTVSS”, the “polyreactivity (PSR sort gate)” value is reported as “low polyreactivity”.

With “QVQLVESGGGLVQAGGSLRLSCAASGRTLCVNAMGWYRQAPGKERELVAAISTRGTTTNYADSVKGRFTISRDIAKNTVYLQMNSLKPEDSAVYYCATRTYRTYPRYDYWGQGTQVTVSS”, the “polyreactivity (PSR sort gate)” value is given as “low polyreactivity”.

For “QVQLVESGGGLVQAGGSLRLSCAASGRTLDIYTMGWYRQAPGKERELVAAISWSGGSTYYADSVKGRFTISRDNAKNTVYLQMNSLKPEDTAVYYCNRVPISYAGQLEHSLYDFWGQGTQVTVSS”, the “polyreactivity (PSR sort gate)” value is listed as “low polyreactivity”.

As to “QVQLVESGGGLVQAGGSLRLSCAASGRTLDVYAMGWYRQAPGKERELVADINWSGGRTYYADSVKGRFTISRDNAKNTVYLQMNSLIPEDTAVFYCAADLSWRQYYREYDYWGQGTQVTVSS”, the “polyreactivity (PSR sort gate)” value was “high polyreactivity”.

For “QVQLVESGGGLVQAGGSLRLSCAASGRTLFGYAMGWYRQAPGKERELVAAITYGATSTYADSVKGRFTISRDNAKNTVYLQMNSLKPEDTAVYYCNAYTPTDGFDYWGQGTQVTVSS”, the “polyreactivity (PSR sort gate)” value is reported as “low polyreactivity”.

In the case of “QVQLVESGGGLVQAGGSLRLSCAASGRTLFRYAMGWYRQAPGKERELVAAISRSGGTTYYADSVKGRFTISRDNAKNTVYLQMNSLKPEDTAVYYCAARFVLRRDYGYWGQGTQVTVSS”, the “polyreactivity (PSR sort gate)” value is “high polyreactivity”.

Take “QVQLVESGGGLVQAGGSLRLSCAASGRTLGDYDMGSYRQAPGKERELVAAINWSGGDTYYADSVKGRFTISRDNANNTVYLQMNSLKPEDSAVYYCNADYVYTRYDYWGQGTQVTVSS”: the “polyreactivity (PSR sort gate)” value is given as “high polyreactivity”.

For the sequence “QVQLVESGGGLVQAGGSLRLSCAASGRTLGGYAMGWYRQAPGKERELVASITSTSSTYADSVKGRFTISRDNAKNTVYLQMNSLKPEDTAVYYCAADYFLTSYGWRIHYTYYYWGQGTQVTVSS”, the “polyreactivity (PSR sort gate)” value was “low polyreactivity”.

Consider “QVQLVESGGGLVQAGGSLRLSCAASGRTLGGYAMGWYRQAPGKERELVAVITWNGGSTYADSVKGRFTISRDNAKNTVYLQMNSLKPEDTAVYYCAADRFNKPYYYWGQGTQVTVSS”, for which the “polyreactivity (PSR sort gate)” value is “high polyreactivity”.

On to “QVQLVESGGGLVQAGGSLRLSCAASGRTLGKYAMGWYRQAPGKERELVAAIRWTGGNTYYADSVKGRFTISRDNAKNTVYLQMNSLKPEDPAGYYCNAVSFGRARHGGPVYGYDYWGQGTQVTVSS”, for which the “polyreactivity (PSR sort gate)” value is “high polyreactivity”.

As to “QVQLVESGGGLVQAGGSLRLSCAASGRTLGRNAMGWYRQAPGKERELVASISSGGSTNYADSVKGRFTISRDNAKNTVYLQMNSLKPEDTAVYYCAAGYFRDYWGQGTQVTVSS”, the “polyreactivity (PSR sort gate)” value is “high polyreactivity”.

As to “QVQLVESGGGLVQAGGSLRLSCAASGRTLGTYAMGWYRQAPGKERELVAAISVSSGSTYYADSVKGRFTISRDTAKNTVYLQMNSLKPEDTAVYYCAALPVYHYDSWGQGTQVTVSS”, the “polyreactivity (PSR sort gate)” value is “high polyreactivity”.

Consider “QVQLVESGGGLVQAGGSLRLSCAASGRTLGYNAMGWYSQAPGKEMDLVAAISYGGGGTYYADSVKGRCTISRDNAKNTVYLQMNSLKPEDTAVYYCAADYWYGAGLPHGTEFDYWGQGTQVTVSS”, for which the “polyreactivity (PSR sort gate)” value was “low polyreactivity”.

For “QVQLVESGGGLVQAGGSLRLSCAASGRTLGYYAMGWYRQAPGKERELVAAISGSGGITYYADSVKGRFTISRDNAKNTVYLQMNSLKPEDTAVYYCNVDPTAKWFNYDSWGQGTQVTVSS”, the “polyreactivity (PSR sort gate)” value was “low polyreactivity”.

“QVQLVESGGGLVQAGGSLRLSCAASGRTLIVNTMGWYRQAPGKEREFVAAIFSGASTYYADSVKGRFTISRDNAMNTDYLQINSVKPEDTAVYYCAAAVFRWSRYDYWGQGTQVTVSS”: the “polyreactivity (PSR sort gate)” value is “low polyreactivity”.

Take “QVQLVESGGGLVQAGGSLRLSCAASGRTLKWYAMGWYRQAPGKERELVAAISWSGGSTYYADSVKGRFTISRDNAKNTVYLQMNSLKPEDTAVYYCAVAVTSYSSKKLYYWGQGTQVTVSS”: the “polyreactivity (PSR sort gate)” value is reported as “low polyreactivity”.

Turning to “QVQLVESGGGLVQAGGSLRLSCAASGRTLLLNTMGWYRQAPGKERELVAAISWRDGSTYYADSVKGRFTISRDNAKNTVYLQMNSLKPEDTAVYYCNARLSGRSPYDLRFDYWGQGTQVTVSS”, the “polyreactivity (PSR sort gate)” value is “low polyreactivity”.

Consider “QVQLVESGGGLVQAGGSLRLSCAASGRTLLPNAMGWYRQAPGKERELVADISTSDGSTRYADSVKGRFTISRDNAKNTVYLQMNSLKPEDTAVYYCAAGSEYYSSGGVRFSFYYWGQGTQVTVSS”, for which the “polyreactivity (PSR sort gate)” value is recorded as “low polyreactivity”.

Consider “QVQLVESGGGLVQAGGSLRLSCAASGRTLLYNAMGWYRQAPGKERELVAAISYRGGSTYYADSVKGRFTISRDNAKNTVYLQMNSLKPEDTAVYYCAKVTYPYIRWYYPGYDYWGQGTQVTVSS”, for which the “polyreactivity (PSR sort gate)” value is “high polyreactivity”.
